B1: anti-mCD8 YTS 169 minibody (other)
scFv: EVKLQESGGGLVQPGRSLKLSCAASGFNFNDYWMGWVRQAPGKGLEWIGEINKDSSTINYTPSLKDKFTISRDNAQNTLYLQMSKLGSEDTAIYYCARARGMMVLIIPHYFDYWGQGVMVTVSSGSTSGGGSGGGSGGGGSSDIVLTQSPAMAMSPGERITISCRASESVSTRMHWYQQKPGQQPKLLIYGASNLESGVPARFSGSGSGTDFTLTIDPVEANDTATYFCQQSWYDPWTFGGGTKLELKLEPRGPTIKPCPPCKCPAPNLLGGPGSVRAPQVYVLPPPEEEMTKKQVTLTCMVTDFMPEDIYVEWTNNGKTELNYKNTEPVLDSDGSYFMYSKLRVEKKNWVERNSYSCSVVHEGLHNYHTTKSFSRTPGKAAAAGHLPETGAGHHHHHHAAA
notes: Minibody (scFv-hinge-CH3 homodimer); also called YTS169 Mb
B2: anti-mCD8 2.43 minibody (other)
scFv: EVQLVESGGGLVQPGRSLKLSCAASGFTFSNYYMAWVRQAPTKGLEWVAYINTGGGTTYYRDSVKGRFTISRDDAKSTLYLQMDSLRSEDTATYYCTTAIGYYFDYWGQGVMVTVSSGSTSGGGSGGGSGGGGSSDIQLTQSPASLSASLGETVSIECLASEDIYSYLAWYQQKPGKSPQVLIYAANRLQDGVPSRFSGSGSGTQYSLKISGMQPEDEGDYFCLQGSKFPYTFGAGTKLELKLEPRGPTIKPCPPCKCPAPNLLGGPGSVRAPQVYVLPPPEEEMTKKQVTLTCMVTDFMPEDIYVEWTNNGKTELNYKNTEPVLDSDGSYFMYSKLRVEKKNWVERNSYSCSVVHEGLHNYHTTKSFSRTPGKAAAAGHLPETGAGHHHHHHAAA
notes: Minibody (scFv-hinge-CH3 homodimer, about 80 kDa; 19% higher multimers); Some assays used the NOTA/64Cu-labelled or FITC-labelled protein
B3: anti-mCD8 2.43 Cys-diabody (other)
scFv: EVQLVESGGGLVQPGRSLKLSCAASGFTFSNYYMAWVRQAPTKGLEWVAYINTGGGTTYYRDSVKGRFTISRDDAKSTLYLQMDSLRSEDTATYYCTTAIGYYFDYWGQGVMVTVSSGGGGSDIQLTQSPASLSASLGETVSIECLASEDIYSYLAWYQQKPGKSPQVLIYAANRLQDGVPSRFSGSGSGTQYSLKISGMQPEDEGDYFCLQGSKFPYTFGAGTKLELKAAAGCGGHHHHHH
notes: Cys-diabody (scFv dimer, about 51 kDa)

How the values were obtained:
[1] = target: T1, soluble CD8αβ heterodimer fusion protein (mouse, UniProt P01731 28-151; P10300 22-138); experiment: SPR, Biacore 3000; minibody captured by goat anti-mouse IgG Fc, soluble monomeric sCD8αβ flowed at 0-100 nM
Experimental: (§1) Surface Plasmon Resonance (SPR) analysis was performed on a Biacore 3000 (Precision Antibody, Inc.). Briefly, Mbs were captured using goat anti-mouse IgG Fc and sCD8αβ antigen was flowed over the chip at 100, 50, 25, 12.5, 6.25 and 0 nM. The equilibrium constant (KD) was calculated from the observed on (kₐ) and off (kd) rates.
SPR kinetic analysis was performed using the Biacore 3000 with immobilized minibody and soluble monomeric sCD8αβ.

[2] = target: T1, soluble CD8αβ heterodimer fusion protein; experiment: SPR, Biacore 3000; minibody captured by goat anti-mouse IgG Fc, sCD8αβ as analyte at 0-100 nM
Experimental: FIG. 15A-to FIG. 15C depict the kinetic analysis of minibody binding to sCD8αβ antigen using SPR Biacore 3000. […] Soluble monovalent antigen was then flowed over the chip at 100 (green), 50 (magenta), 25 (red), 12.5 (dark blue), 6.25 (light blue), and 0 (black) nM.
as §1

[3] = target: T2, mouse CD8α, Lyt2.1 allele (mouse, UniProt P01731 28-247); experiment: statement in Example 5; supported there only by in vivo immunoPET and biodistribution in C3H mice
T2 construct: Position 78 is counted on mature CD8a, not on the precursor; On the cells it is paired with CD8β (TK-1 is Lyt2.1+, Lyt3+); also called CD8a Lyt2.1; CD8-Lyt2.1

[4] = target: T3, mouse CD8α, Lyt2.2 allele (mouse, UniProt P01731 28-247); experiment: statement in Example 5; supported there only by in vivo immunoPET and biodistribution in C57Bl/6 mice
T3 construct: On the cells it is paired with CD8β (BW58 is Lyt2.2+, Lyt3+); also called CD8a Lyt2.2; CD8-Lyt2.2
T3 sequence (P01731 28-247 limits assumed): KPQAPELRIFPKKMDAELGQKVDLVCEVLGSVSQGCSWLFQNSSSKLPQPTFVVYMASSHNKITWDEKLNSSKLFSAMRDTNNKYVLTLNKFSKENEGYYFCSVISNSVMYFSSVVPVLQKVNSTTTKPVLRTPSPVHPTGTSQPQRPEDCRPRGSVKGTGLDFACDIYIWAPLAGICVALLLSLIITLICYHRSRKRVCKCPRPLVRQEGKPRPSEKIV

T1 sequence (P10300 other isoform, or with tags, fused parts or gaps): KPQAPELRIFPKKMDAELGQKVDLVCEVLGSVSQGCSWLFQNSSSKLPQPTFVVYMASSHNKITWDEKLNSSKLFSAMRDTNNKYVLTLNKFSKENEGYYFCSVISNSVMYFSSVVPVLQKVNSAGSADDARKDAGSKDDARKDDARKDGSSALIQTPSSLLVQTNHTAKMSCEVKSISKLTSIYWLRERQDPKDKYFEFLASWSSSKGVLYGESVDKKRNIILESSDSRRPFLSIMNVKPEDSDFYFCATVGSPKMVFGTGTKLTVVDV
T2 sequence (P01731 28-247 M105V limits assumed): as the sequence (P01731 28-247 limits assumed) above, with M78V counted along it

| Binder | Kd [1] | Ka [2] | koff [2] | kon [2] | binding result [3] | binding result [4] |
| --- | --- | --- | --- | --- | --- | --- |
| B1 | 33 nM | 3e+07 M⁻¹ | 0.0076 s⁻¹ | 230000 M⁻¹ s⁻¹ |  |  |
| B2 | 34 nM | 3e+07 M⁻¹ | 0.0041 s⁻¹ | 120000 M⁻¹ s⁻¹ |  |  |
| B3 |  |  |  |  | no binding | binds |

From patent US20150191543A1 (University of California, published 2015)
